# Measurements published in US20120178693A1.
# Biological target: CMK-inhibited FVII (human Factor VII treated with a 'Phe-Pro-Arg' peptide based chloromethylketone inhibitor) (UniProt P08709)
# Chain of UniProt P08709 (P08709 61-466): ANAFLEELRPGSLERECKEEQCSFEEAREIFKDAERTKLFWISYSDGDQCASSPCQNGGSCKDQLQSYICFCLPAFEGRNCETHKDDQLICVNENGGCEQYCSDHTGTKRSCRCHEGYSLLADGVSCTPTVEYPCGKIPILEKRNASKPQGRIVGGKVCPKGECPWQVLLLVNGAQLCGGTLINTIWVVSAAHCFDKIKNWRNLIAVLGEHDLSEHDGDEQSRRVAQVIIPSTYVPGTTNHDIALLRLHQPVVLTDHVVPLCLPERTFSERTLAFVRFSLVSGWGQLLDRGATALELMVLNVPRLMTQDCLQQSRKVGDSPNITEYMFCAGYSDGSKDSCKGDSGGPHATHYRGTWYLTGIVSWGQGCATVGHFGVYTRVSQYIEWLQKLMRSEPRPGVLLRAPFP
substance,measurement,value
thrombin,activation of FVII by thrombin (rate of hydrolysis of the chromogenic substrate Chromozym-tPA),a low activation of FVII by thrombin was measured
